From publication PMC6675907, “Identification and functional characterisation of a novel N-cyanoamidine neonicotinoid metabolising cytochrome P450, CYP9Q6, from the buff-tailed bumblebee Bombus terrestris” (Insect Biochemistry and Molecular Biology, 2019)

Columns and labels:
[1] = substrate: N#C/N=C1\SCCN1Cc1ccc(Cl)nc1; assay: LC-MS/MS of metabolites, microsomes with recombinant P450/CPR, Michaelis-Menten fit; type: biochemical, Bombus terrestris; conditions: NADPH regeneration system, 30 °C, 1 h, substrate 3.1-200 μM, house fly CPR co-expressed
[2] = substrate: C/C(=N\C#N)N(C)Cc1ccc(Cl)nc1; assay: as above; type: biochemical, Bombus terrestris; conditions: NADPH regeneration system, 30 °C, 1 h, substrate 3.1-200 μM, house fly CPR co-expressed

B1: CYP9Q6 (Bombus terrestris audax) (protein)
chain: MEYLSLGLFLIAILIAIYYCATKNHNLFKKHGILHIPPMPLFGNMGSFFAKRSTLQDTILEAYELHPEAKYVGIYESLTPIIVLRDLDLIKSVNMKNFDHFTDHRNFVFKDMDPIFAGMLFSMKGEQWKEQRSILSLAFTSNKVKDMFNLMSECATRYANYLSNLAENEREMEMRDLLTKYTNDVIATCVYGVSVDTIKNPKNVFYTYGKSTTFTSFKKDMAMLAQRNLPWLAKLFQLRFLEKHIAKFFTEQVINTIEERKQNGTYRSDILQLFIDVNDKKVPGKGMSTENMVNHAFSLFFGGTDSVATQTSFLFYLLAENPEILKRLQEEIDETLENNNGQLTYDAIQKMKYLDAMINEAMRLQPITVFLDRLCVKDFELPPALPGEKPFTVKAGMNIWIPVDAIHHDPKHYENPQKFDPDRFLENGKKIINSGAFMPFGLGPRICIGNRFALTEIKVLLCHILAKCNVKIGSKMLLPLQYEEGVITAYAKNGFWLNVEPREHSYCTSQTNGTTKHLSNGNCRN
notes: with NADPH--cytochrome P450 reductase (Musca domestica, house fly)
- Km [1]: 15.83 µM
- Km [2]: 27.32 µM
